Experimental data from the supplement of paper PMC10724198.
± gives the standard deviation of the averaged measurements.
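Further: PSI is a weighted mean of sequencing reads over stability bins, variants kept only with over 10 reads, mCherry proximal and sfGFP distal, peptide attached via GGGS linker.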

Each sequence was assayed on Saccharomyces cerevisiae (assay: protein stability index of tFT-peptide fusion (C-terminal peptide) (PSI (0-1 scale)); higher = more stable (slower turnover)). Details: genetic background: wild type; temperature: 30 C.
Work on RKLNEKTRYKRR yielded a protein stability index of 0.7788 ± 0.003.
For RKMYRIKKEIKI, the protein stability index was 0.641 ± 0.098.
In the case of RKNTSRESGLTR, the protein stability index is reported as 0.632 ± 0.026.
RKSDGMKSCLMG was tested, and the protein stability index was 0.684 ± 0.016.
RKYEKEKYKKMI gave a protein stability index of 0.566 ± 0.013.
With RLAPWATGVRMW the protein stability index was 0.6759 ± 0.0016.
Work on RLDAGASAAFKG yielded a protein stability index of 0.7184 ± 0.00093.
RLGCGFGGGEEV was tested, and the protein stability index was 0.674 ± 0.032.
For RLGDALCFSFTV, the protein stability index was 0.644 ± 0.032.
With RLGGGGCVWVRG the protein stability index was 0.683 ± 0.027.
RLGIADHEYPCE showed a protein stability index of 0.673 ± 0.011.
In the case of RLGVWVWGFTPG, the protein stability index is reported as 0.742 ± 0.082.
RLGWTTSEELWC was tested, and the protein stability index was 0.657 ± 0.029.
RLLSPPPPPPPV showed a protein stability index of 0.701 ± 0.071.
With RLLSSPLHPPLP the protein stability index was 0.701 ± 0.018.
RLPLAPFSVTTH was tested, and the protein stability index was 0.699 ± 0.1.
With RLPLASPPHSSP the protein stability index was 0.675 ± 0.056.
Work on RLPLPPSRLVKH yielded a protein stability index of 0.671 ± 0.026.
RLPPGRPPPPPP was tested, and the protein stability index was 0.602 ± 0.08.
RLPPPSPSLPPL showed a protein stability index of 0.722 ± 0.063.
Work on RLPQSRLRTPPP yielded a protein stability index of 0.705 ± 0.069.
Sequence RLRTVQNLQIVV has a protein stability index of 0.658 ± 0.028.
In the case of RLSARRSVGGSA, the protein stability index is reported as 0.7097 ± 0.0051.
RLSCFLVWFPFW showed a protein stability index of 0.5924 ± 0.0021.
For RLSFAWGGLLVV, the protein stability index was 0.523 ± 0.0057.
Work on RLSGDRCSHDAG yielded a protein stability index of 0.6768 ± 0.0037.
Sequence RLSRCFDSHLGG has a protein stability index of 0.696 ± 0.038.
Work on RLSVWTFCSMVW yielded a protein stability index of 0.555 ± 0.0085.
For RLTPFPPRPLPL, the protein stability index was 0.767 ± 0.2.
RLVCLVTQSVPH was tested, and the protein stability index was 0.613 ± 0.021.
With RLVNSVAVSFLR the protein stability index was 0.697 ± 0.1.
Sequence RLVSPPPLPHRP has a protein stability index of 0.688 ± 0.0062.
Sequence RMCLDYSFDSLL has a protein stability index of 0.673 ± 0.0082.
RMIPYDLIRLTR was tested, and the protein stability index was 0.705 ± 0.012.
With RMKGTNKEGKKK the protein stability index was 0.693 ± 0.054.
In the case of RMLHYCTYSLLL, the protein stability index is reported as 0.71 ± 0.079.
RNAEVWDNLFEG gave a protein stability index of 0.6969 ± 0.0061.
With RNAGYPALDELS the protein stability index was 0.6861 ± 0.0047.
RNIRINKKVKDI was tested, and the protein stability index was 0.594 ± 0.032.
With RNKINKKKLKKG the protein stability index was 0.7403 ± 0.0062.
In the case of RNKRKKNKDKIK, the protein stability index is reported as 0.677 ± 0.051.
RNKTNYIQKLTK was tested, and the protein stability index was 0.665 ± 0.027.
Work on RNNIKIKNTQQN yielded a protein stability index of 0.759 ± 0.045.
In the case of RNRRKEMKKGRE, the protein stability index is reported as 0.631 ± 0.034.
In the case of RNSPLFLESPGS, the protein stability index is reported as 0.723 ± 0.034.
RNTIKTKKSNYV gave a protein stability index of 0.654 ± 0.015.
RPAPSRTYLNLI showed a protein stability index of 0.674 ± 0.026.
RPASSYPPHSPT gave a protein stability index of 0.767 ± 0.037.
RPFGRPTSMRHA showed a protein stability index of 0.616 ± 0.059.
With RPFLPPPPHCPP the protein stability index was 0.75 ± 0.036.
Work on RPFVRDFGCAVW yielded a protein stability index of 0.711 ± 0.023.
RPGNIRNNKKKK gave a protein stability index of 0.688 ± 0.021.
Work on RPIQPATLAYSP yielded a protein stability index of 0.682 ± 0.037.
For RPLLPPTFATSF, the protein stability index was 0.751 ± 0.038.
For RPLPPLIPSSFS, the protein stability index was 0.698 ± 0.038.
RPLSDDTDCPCI gave a protein stability index of 0.748 ± 0.13.
RPLSSSFRTVPS gave a protein stability index of 0.721 ± 0.037.
Sequence RPNTKKHKIGER has a protein stability index of 0.719 ± 0.03.
Work on RPPDPPLHHNLP yielded a protein stability index of 0.687 ± 0.014.
Sequence RPPFPPPPLPPP has a protein stability index of 0.656 ± 0.031.
RPPFRVYDYPLL showed a protein stability index of 0.671 ± 0.039.
Sequence RPPPPHPSPLPL has a protein stability index of 0.713 ± 0.052.
RPPPPTAPPPSR showed a protein stability index of 0.719 ± 0.043.
Work on RPPRPGFCLFLP yielded a protein stability index of 0.652 ± 0.0067.
Work on RPPSNRPPPPSS yielded a protein stability index of 0.698 ± 0.0032.
RPRGRGRSRGDT showed a protein stability index of 0.633 ± 0.037.
RPRIPLNSSSLS was tested, and the protein stability index was 0.74 ± 0.037.
Work on RPRLSGGLGGVG yielded a protein stability index of 0.644 ± 0.051.
RPRTSLFPCSLP was tested, and the protein stability index was 0.711 ± 0.081.
RPTPHVVLPPLP gave a protein stability index of 0.524 ± 0.067.
RPTPSAPHRTRI gave a protein stability index of 0.735 ± 0.041.
Sequence RQCSGMIMKDVG has a protein stability index of 0.73 ± 0.036.
RQDLLILIKQKG gave a protein stability index of 0.573 ± 0.0072.
With RQDRTFEIQGWE the protein stability index was 0.697 ± 0.084.
RQKIRRKSSTKN gave a protein stability index of 0.704 ± 0.0074.
Work on RQRGNMEIRIRR yielded a protein stability index of 0.709 ± 0.027.
RRAPLRNTSRHR was tested, and the protein stability index was 0.663 ± 0.021.
RRCTLVERAWRW gave a protein stability index of 0.628 ± 0.039.
With RREGGRQRGGSG the protein stability index was 0.67 ± 0.063.
In the case of RREGWYTNRERG, the protein stability index is reported as 0.668 ± 0.013.
RRFAKVALLSLR showed a protein stability index of 0.644 ± 0.12.
Work on RRGAVVLVSPAL yielded a protein stability index of 0.677 ± 0.021.
Sequence RRGPLDSVLVAI has a protein stability index of 0.713 ± 0.05.
Work on RRGRGGSGGSAP yielded a protein stability index of 0.734 ± 0.053.
Sequence RRGWGDRLGRDA has a protein stability index of 0.711 ± 0.1.
RRHKNNRLTVCR showed a protein stability index of 0.625 ± 0.098.
Sequence RRINRRGPRMME has a protein stability index of 0.62 ± 0.015.
With RRKEQGNHSTMR the protein stability index was 0.663 ± 0.013.
RRKHKSEEKHKR was tested, and the protein stability index was 0.649 ± 0.038.
RRKNIQEKKIKK was tested, and the protein stability index was 0.725 ± 0.016.
RRKVGVFTRRWV showed a protein stability index of 0.691 ± 0.04.
Sequence RRKYIFRMIYPR has a protein stability index of 0.658 ± 0.026.
Work on RRLRGGTQAEGE yielded a protein stability index of 0.682 ± 0.068.
RRLRRALPPQLA was tested, and the protein stability index was 0.577 ± 0.037.
RRPPPPSPPPPP was tested, and the protein stability index was 0.7095 ± 0.0062.
RRPSSCSPLPLY was tested, and the protein stability index was 0.695 ± 0.03.
RRRAEGRRGVRA was tested, and the protein stability index was 0.6223 ± 0.0014.
RRRAGSKEKQRK showed a protein stability index of 0.703 ± 0.019.
In the case of RRRGQDEGKQKR, the protein stability index is reported as 0.7511 ± 0.0059.
Sequence RRRGQLNTAEWK has a protein stability index of 0.717 ± 0.065.
For RRRGREVCRCTE, the protein stability index was 0.716 ± 0.046.
